Data: patent US20180022780A1 (Bayer, published 2018)
Bridge positions count the residues as written; N and C are the ends. Square brackets hold non-standard residues; d marks the D form. Ends that are not written are not given here. Orn = NCCC[C@H](N)C(=O)O; Dap = NC[C@H](N)C(=O)O

B1: [G^14, (Orn^16, E^21)lac]ADM(14-52) (peptide)
peptide: GG[Orn]RFGTETVQKLAHQIYQFTDKDKDNVAPRSKISPQGY-NH2
modifications: lactam 3-8; N-terminus assumed
SMILES: CC[C@H](C)[C@H](NC(=O)[C@H](CCC(N)=O)NC(=O)[C@H](Cc1c[nH]cn1)NC(=O)[C@H](C)NC(=O)[C@H](CC(C)C)NC(=O)[C@H](CCCCN)NC(=O)[C@H](CCC(N)=O)NC(=O)[C@@H](NC(=O)[C@@H](NC(=O)[C@@H]1CCC(=O)NCCC[C@H](NC(=O)CNC(=O)CN)C(=O)N[C@@H](CCCNC(=N)N)C(=O)N[C@@H](Cc2ccccc2)C(=O)NCC(=O)N[C@@H]([C@@H](C)O)C(=O)N1)[C@@H](C)O)C(C)C)C(=O)N[C@@H](Cc1ccc(O)cc1)C(=O)N[C@@H](CCC(N)=O)C(=O)N[C@@H](Cc1ccccc1)C(=O)N[C@H](C(=O)N[C@@H](CC(=O)O)C(=O)N[C@@H](CCCCN)C(=O)N[C@@H](CC(=O)O)C(=O)N[C@@H](CCCCN)C(=O)N[C@@H](CC(=O)O)C(=O)N[C@@H](CC(N)=O)C(=O)N[C@H](C(=O)N[C@@H](C)C(=O)N1CCC[C@H]1C(=O)N[C@@H](CCCNC(=N)N)C(=O)N[C@@H](CO)C(=O)N[C@@H](CCCCN)C(=O)N[C@H](C(=O)N[C@@H](CO)C(=O)N1CCC[C@H]1C(=O)N[C@@H](CCC(N)=O)C(=O)NCC(=O)N[C@@H](Cc1ccc(O)cc1)C(N)=O)[C@@H](C)CC)C(C)C)[C@@H](C)O
B2: [G^14, (K^16, D^21)lac]ADM(14-52) (peptide)
peptide: GGKRFGTDTVQKLAHQIYQFTDKDKDNVAPRSKISPQGY-NH2
modifications: lactam 3-8; N-terminus assumed
SMILES: CC[C@H](C)[C@H](NC(=O)[C@H](CCC(N)=O)NC(=O)[C@H](Cc1c[nH]cn1)NC(=O)[C@H](C)NC(=O)[C@H](CC(C)C)NC(=O)[C@H](CCCCN)NC(=O)[C@H](CCC(N)=O)NC(=O)[C@@H](NC(=O)[C@@H](NC(=O)[C@@H]1CC(=O)NCCCC[C@H](NC(=O)CNC(=O)CN)C(=O)N[C@@H](CCCNC(=N)N)C(=O)N[C@@H](Cc2ccccc2)C(=O)NCC(=O)N[C@@H]([C@@H](C)O)C(=O)N1)[C@@H](C)O)C(C)C)C(=O)N[C@@H](Cc1ccc(O)cc1)C(=O)N[C@@H](CCC(N)=O)C(=O)N[C@@H](Cc1ccccc1)C(=O)N[C@H](C(=O)N[C@@H](CC(=O)O)C(=O)N[C@@H](CCCCN)C(=O)N[C@@H](CC(=O)O)C(=O)N[C@@H](CCCCN)C(=O)N[C@@H](CC(=O)O)C(=O)N[C@@H](CC(N)=O)C(=O)N[C@H](C(=O)N[C@@H](C)C(=O)N1CCC[C@H]1C(=O)N[C@@H](CCCNC(=N)N)C(=O)N[C@@H](CO)C(=O)N[C@@H](CCCCN)C(=O)N[C@H](C(=O)N[C@@H](CO)C(=O)N1CCC[C@H]1C(=O)N[C@@H](CCC(N)=O)C(=O)NCC(=O)N[C@@H](Cc1ccc(O)cc1)C(N)=O)[C@@H](C)CC)C(C)C)[C@@H](C)O
B3: [G^14, (D^16, K^21)lac]ADM(14-52) (peptide)
peptide: GGDRFGTKTVQKLAHQIYQFTDKDKDNVAPRSKISPQGY-NH2
modifications: lactam 3-8
B4: [G^14, (D^16, Dpr^21)lac]ADM(14-52) (peptide)
peptide: GGDRFGT[Dap]TVQKLAHQIYQFTDKDKDNVAPRSKISPQGY-NH2
modifications: lactam 3-8
B5: PAM[G^14, (C^16→U^21)]ADM(14-52) (peptide)
peptide: GGCRFGTXTVQKLAHQIYQFTDKDKDNVAPRSKISPQGY
modifications: palmitic acid (PAM) on the N-terminus (G14); positions 16 and 21 (residues 3 and 8 of the letters) together are cystathionine (C^16→U^21, thioether); X stands for the printed U at 21; C-terminal …

Assays:
[1] = target: human adrenomedullin-receptor (human, UniProt Q16602 23-461); assay: cell-based or functional assay
Sequence of human adrenomedullin-receptor (Q16602 23-461): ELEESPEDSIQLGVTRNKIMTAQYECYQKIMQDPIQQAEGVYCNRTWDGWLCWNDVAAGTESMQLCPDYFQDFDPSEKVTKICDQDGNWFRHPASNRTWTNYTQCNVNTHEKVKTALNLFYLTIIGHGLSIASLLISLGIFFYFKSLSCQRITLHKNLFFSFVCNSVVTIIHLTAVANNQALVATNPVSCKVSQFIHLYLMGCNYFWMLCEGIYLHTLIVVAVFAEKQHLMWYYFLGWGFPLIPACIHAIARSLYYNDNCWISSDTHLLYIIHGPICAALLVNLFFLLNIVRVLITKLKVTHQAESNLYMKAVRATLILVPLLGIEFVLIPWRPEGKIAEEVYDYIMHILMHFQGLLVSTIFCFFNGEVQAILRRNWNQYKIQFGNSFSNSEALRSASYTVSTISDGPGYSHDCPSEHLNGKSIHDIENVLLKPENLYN

[2] = target: CLR fused to EYFP with RAMP2 fused to ECFP; assay: cell-based or functional assay
Sequence of CLR fused to EYFP with RAMP2 fused to ECFP (Q16602 whole entry, chain 1 of 2, the tested form may be a part): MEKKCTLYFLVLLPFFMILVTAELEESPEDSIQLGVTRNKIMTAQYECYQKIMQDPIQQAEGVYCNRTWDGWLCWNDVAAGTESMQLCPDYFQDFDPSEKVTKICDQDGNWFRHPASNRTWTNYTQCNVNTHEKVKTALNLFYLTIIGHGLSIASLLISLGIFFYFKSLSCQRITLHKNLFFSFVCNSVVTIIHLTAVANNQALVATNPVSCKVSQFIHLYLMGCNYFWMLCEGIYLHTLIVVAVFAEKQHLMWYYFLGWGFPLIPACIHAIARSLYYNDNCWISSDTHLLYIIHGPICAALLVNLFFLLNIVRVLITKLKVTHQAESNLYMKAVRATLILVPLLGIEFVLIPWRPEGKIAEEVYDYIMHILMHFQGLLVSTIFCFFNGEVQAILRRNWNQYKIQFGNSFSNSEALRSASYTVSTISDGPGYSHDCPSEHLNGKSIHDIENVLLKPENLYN
Sequence of CLR fused to EYFP with RAMP2 fused to ECFP (O60895 whole entry, chain 2 of 2, further chain, the tested form may be a part): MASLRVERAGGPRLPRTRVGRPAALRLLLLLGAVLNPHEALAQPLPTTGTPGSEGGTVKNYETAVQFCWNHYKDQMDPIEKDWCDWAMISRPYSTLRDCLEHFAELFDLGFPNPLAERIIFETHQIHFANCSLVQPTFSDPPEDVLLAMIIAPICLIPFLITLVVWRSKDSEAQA

Binder	EC50 [nM], aequorin luminescence of CHO adrenomedullin-receptor reporter cells [1] [nM]	EC50 [nM], cAMP assay (CRE-luciferase luminescence, HEK293 cells) [2] [nM]
B1	27	9.1
B2	> 1000	> 1000
B3	15	2.3
B4	32	> 1000
B5	15	16.9
